# Laboratory results taken from patent US20210238262A1 (published 2021).
# T1: Recombinant DENV-2 sE (1-396) from strain 16681-PDK53 with C-terminal AviTag and poly-histidine tags (UniProt P29991 281-676, biotinylated on the AviTag for BLI)
# T1 chain: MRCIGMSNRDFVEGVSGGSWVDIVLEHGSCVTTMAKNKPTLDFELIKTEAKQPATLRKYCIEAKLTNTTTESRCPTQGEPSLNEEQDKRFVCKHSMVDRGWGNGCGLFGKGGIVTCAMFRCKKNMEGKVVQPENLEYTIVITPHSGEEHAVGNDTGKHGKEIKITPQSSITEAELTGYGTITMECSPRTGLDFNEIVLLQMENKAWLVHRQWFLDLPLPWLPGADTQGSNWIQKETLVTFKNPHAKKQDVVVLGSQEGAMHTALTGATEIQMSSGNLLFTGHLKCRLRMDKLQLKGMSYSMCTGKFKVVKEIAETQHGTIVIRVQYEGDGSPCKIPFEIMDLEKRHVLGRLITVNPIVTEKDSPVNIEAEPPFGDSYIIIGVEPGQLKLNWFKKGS
# What was measured:
# MZ2 = experiment: BLI; Fab
# [1] = target: T1, Recombinant DENV-2 sE (1-396) from …; experiment: BLI; Fab
Binder,Kd (MZ2) [nM],Kd [1] [nM]
"DENV-2 E (other, biotinylated on the AviTag for BLI) MRCIGMSNRDFVEGVSGGSWVDIVLEHGSCVTTMAKNKPTLDFELIKTEAKQPATLRKYCIEAKLTNTTTESRCPTQGEPSLNEEQDKRFVCKHSMVDRGWGNGCGLFGKGGIVTCAMFRCKKNMEGKVVQPENLEYTIVITPHSGEEHAVGNDTGKHGKEIKITPQSSITEAELTGYGTITMECSPRTGLDFNEIVLLQMENKAWLVHRQWFLDLPLPWLPGADTQGSNWIQKETLVTFKNPHAKKQDVVVLGSQEGAMHTALTGATEIQMSSGNLLFTGHLKCRLRMDKLQLKGMSYSMCTGKFKVVKEIAETQHGTIVIRVQYEGDGSPCKIPFEIMDLEKRHVLGRLITVNPIVTEKDSPVNIEAEPPFGDSYIIIGVEPGQLKLNWFKKGS",0.4,
"MZ4 Fab (Fab, V domains shown) VH: QVHLQESGPGLVRPSETLSLTCTVSDGSISSYYWSWIRQPPGKGLEWIGSIYYTGSTNYNPSLKSRVTMSVDTSKNQFSLRLNSVTAADTAMYYCAGLDRYSWNEGGDHWGQGILVSVSS VL: QPVLTQPPSASGTPGQRVSISCSGSRSNLGKNTVNWYQQLPGTAPKLLIYNHSRRPSGVPERFSGSKSGTSASLAISGLQSEDEADYFCAAWDDSLNGLYVFGTGTKVTVLR",,1
